From patent US20160320413A1 (D GEN, published 2016)

Biological target: abnormal human PrP (disease associated PrP, including PrPSc) from vCJD brain homogenate, blood or ur (human, UniProt P04156 23-230)

B1: ICSM18 anti-PrP antibody (D-Gen Ltd, product code 0130-01810), biotinylated (antibody, V domains shown)
VH: EVQLQQSGPELVKPGSSVKISCKASRNTFTDYNLDWVKQSHGKTLEWIGNVYPNNGVTGYNQKFRGKATLTVDKSSSTAYMELHSLTSEDSAVYYCALYYYDVSYWGQGTLVTVSA
VL: QIVLTQSPAIMSASPGEKVTMTCSASSSVSYMHWYQQKSGTSPKRWIYDTSKLASGVPARFSGSGSGTSYSLTISSMEAEDAATYFCHQWRSNPYTFGGGTKLEIKR
  ratio relative to cut off: 1.17
